Experimental findings from patent publication US20250027068 are described below.

Residue numbers refer to the chain shown, from its start.

The chains are these.
B1: PRT-242 (protein)
chain: MVTSVWTKGVTPPANFTQGEDVFHAPYVANQGWYDITKTFNGKDDLLCGAATAGNMLHWWFDQNKDQIKRYLEEHPEKQKINFNGEQMFDVKEAIDTKNHQLDSKLFDYFKEKAFPNLSTKHLGVFPDHVIDMFINGYRLSLLNHGPTPVKEGSKDPRGGIFDAVFTRGDQSKLLTSRHDFKEKNLKEISDLIKKELTEGKALGLSHTYANVRINHVINLWGADFDSNGNLKAIYVTDSDSNPSIGMKKYFVGVNSSGKVAISAKEIKEDNIGAQVLGLFTLSTGQDSWNQTN
B2: PRT-321 (protein)
chain: MTITSVWTKGVTPPTPEDFRENNEDVLHAPYVANQGWYDITKTFDGKDNLLCGAATAGNMLHWWFDQNKEEIERYLKKHPEKQKIIFGNQELFDVKAAIDTKDSQTNSKLFDYFRDKAFPNLSARQLGVMPDLVLDMFINGYYLNLPKTQSTDVNRPYQDKDKRGGIFDAVFTRGDQTTLLTARHDLKNKGLNEISDLIKQELTEGKALALSHTYANVRINHVINLWGADFDAEGNLIAIYVTDSDANASIGMKKYAVGVNANGKVAISAKKIEGDNIGAQVLGLFTLSTGQDQWQKLS
B3: PRT-329 (protein)
chain: B2 chain with G88N, D112N, N121G, M130F, P147G, D176V, A257F, V260R, T290L, Q294I
B4: PRT-289 (protein)
chain: MVTSVWTKGVTPPADFTQGEDVFHAPYVANQGWYDITKTFNGKDDLLCGAATAGNMLHWWFDQNKEYIEAYLKKHPEKQKIMFGDQELLDVRKAINTKGSQKNSELFNYFRDKAFPNLSARRLGVMPDLVLDMFINGYYLNVTKTQTTDVNRTYQEKDKRGGIFDAVFTRGDQSKLLTSRHDFKEKGLKEISDLIKQELTEGKALGLSHTYANVGINHVINLWGADFDSDGNLKAIYVTDSDSNASIGMKKYFVGVNSSGKVAISAKEIKEDNIGAQVLGLFTLSTGQDIWNQTN
B5: PRT-305 (protein)
chain: B4 chain with A14T, T17I, Q18K, V28K, N30G, T39E, G215R, N217G, F253G, S259A
B6: PRT-297 (protein)
chain: B4 chain with V28D, T39E, G215R, N217G, F253G, S259A
B7: PRT-23 (protein)
chain: MANQEIRYSEVTPYHVTSVWTKGVTPPANFTQGEDVFHAPYVANQGWYDITKTFNGKDDLLCGAATAGNMLHWWFDQNKDQIERYLKEHPEKQKINFNGEQMFDVKEAIDTKNSQTDSKLFEYFKEKAFPYLSTKHLGVFPDHVIDMFINGYRLSLTNHGPTPVKEGSKDPRGGIFDAVFTRGDQSKLLTSRHDFKEKNLKEISDLIKKELTEGKALGLSHTYANVRINHVINLWGADFDSNGNLEAIYVTDSDSNASIGMKKYFVGVNSAGKVAISAKEIKEDNIGAQVLGLFTLSTGQDIWNQTN
B8: PRT-24 (protein)
chain: B7 chain with N113D, I145L, N199T, E246K
B9: PRT-273 (protein)
chain: MVTSVWTKGVTPPTDFIYGEDVLHAPYKAGQGWYDITKTFNGKDNLLCGAATAGNMLHWWFDQNKEQIENYLKKHPEKQKIIFNNQELFDLKAAIDTKDSQLDSKLFEYFKEKAFPNLSTKHLGVFPDHVIDMFINGYRLSLLNHGPTPVKRGSKDKRGGIFDAVFTRGVQSKLLTNRHDLKNKTLKEISDLIKQELTEGKALGISHTYANVRINHVINLWGADFDAEGNLEAIYVTDSDTNASIGMKKYFVGVNSSGKVAISAKEIEEDNIGAQVLGLFTLSTGQDIWNQTN
B10: PRT-313 (protein)
chain: MQITSVWTKGVTPLTPEQFRENNEDVIHAPYLAHQGWYDITKAFDGKDNLLCGAATAGNMLHWWFDQNKTEIEAYLSKHPEKQKIIFGNQELFDLKAAIDTKDSQTNSQLFDYFRDKAFPNLSARQLGVMPDLVLDMFINGYYLNVGKTQSTDVNRPYQDKDKRGGIFDAVFTRGDQTTLLTARHDLKNKGLNDISTIIKQELTEGRALALSHTYANVSISHVINLWGADFNAEGELEAIYVTDSDANPSIGMKKYFVGRNAHGHVAISAKKIEGENIGAQVLGLFTLSSGKDIWQKLS
B11: PRT-265 (protein)
chain: MVTSVWTKGVTPPTNFTYGEDVLHAPYVANQGWYDITKLFNGKDNLLCGAATAGNMLHWWFDQNKEQIENYLKKHPEKQKINFNGEQLFDVKEAIDTKDSQLDSKLFEYFLEKAFPYLSTKHLGVFPDHVIDMFINGYRLSLTNHGPTPVKRGSKDKRGGIFDAVFTRGVQSKLLTNRHDFKEKTLKEISDLIKQELTEGKALGISHTYANVRINHVINLWGADFDAEGNLEAIAVTDSDTNASIGMKKYFVGVNSSGKVAISAKEIEEDNIGAQVLGLFTLSTGQDIWNQTN
B12: PRT-249 (protein)
chain: MVTSVWTKGVTPPTNFTYGEDVLHAPYVANQGWYDITKTFNGKDDLLCGAATAGNMLHWWFDQNKEQIENYLKKHPEKQKINFNGEQMFDVKEAIDTKDSQLDSKLFDYFKEKAFPNLSTKHLGVFPDHVIDMFINGYRLSLLNHGPTPVKRGSKDPRGGIFDAVFTRGDQSKLLTNRHDFKEKTLKEISDLIKQELTEGKALGISHTYANVRINHVINLWGADFDAEGNLEAIYVTDSDSNPSIGMKKYFVGVNSSGKVAISAKEIEEDNIGAQVLGLFTLSTGQDIWNQTN
B13: PRT-250 (protein)
chain: B12 chain with T39L, V212G
B14: PRT-258 (protein)
chain: B11 chain with N45D, L88M, K157P, V170D, T241S
B15: PRT-257 (protein)
chain: B12 chain with T39L, N117Y, L143T
B16: PRT-281 (protein)
chain: MVTSVWTKGVTPPAKFTQGEDVFHAPYVANQGWYDITKTFNGKDDLLCGAATAGNMLHWWFDQNKEKIEAYLKKHPDKQKIMFGDQELLDVRKVINTKGDQTNSELFNYFRDKAFPNLSARRIGVMPDLVLDMFINGYYLNVYKTQTTDVNRTYQEKDRRGGIFDAVFTRGDQSKLLTSRHDFKEKNLKEISDLIKKELTEGKALGLSHTYANVRIGHVINLWGADFDSNGNLKAIYVTDSDSNASIGMKKYFVGVNSSGKVAISAKEIKEDNIGAQVLGLFTLSTGQDSWNQTN

The data set addresses pooled human IgG.
In turn, B1 displayed an Enzyme Activity Endpoint Assay (purified): Fab'2 of 1030 ng/µL, an Enzyme Activity Endpoint Assay (purified): Fc of 418 ng/µL, an Enzyme Activity Endpoint Assay (purified): IgG of 0 ng/µL and an Enzyme Activity Endpoint Assay (purified): scIgG of 0 ng/µL.

As for B2, the Enzyme Activity Endpoint Assay (purified): Fab'2 worked out at 469 ng/µL, the Enzyme Activity Endpoint Assay (purified): Fc was 337 ng/µL, the Enzyme Activity Endpoint Assay (purified): IgG stood at 139 ng/µL and the Enzyme Activity Endpoint Assay (purified): scIgG turned out to be 214 ng/µL.

As to B3, the Enzyme Activity Endpoint Assay (purified): Fab'2 was 928 ng/µL, the Enzyme Activity Endpoint Assay (purified): Fc came to 406 ng/µL, the Enzyme Activity Endpoint Assay (purified): IgG worked out at 0 ng/µL and the Enzyme Activity Endpoint Assay (purified): scIgG is 0 ng/µL.

B4 showed an Enzyme Activity Endpoint Assay (purified): Fab'2 of 581 ng/µL, an Enzyme Activity Endpoint Assay (purified): Fc of 304 ng/µL, an Enzyme Activity Endpoint Assay (purified): IgG of 90 ng/µL and an Enzyme Activity Endpoint Assay (purified): scIgG of 114 ng/µL.

B5 displayed an Enzyme Activity Endpoint Assay (purified): Fab'2 of 786 ng/µL, an Enzyme Activity Endpoint Assay (purified): Fc of 359 ng/µL, an Enzyme Activity Endpoint Assay (purified): IgG of 91 ng/µL and an Enzyme Activity Endpoint Assay (purified): scIgG of 0 ng/µL.

In the case of B6, the Enzyme Activity Endpoint Assay (purified): Fab'2 is 484 ng/µL, the Enzyme Activity Endpoint Assay (purified): Fc came out at 345 ng/µL, the Enzyme Activity Endpoint Assay (purified): IgG turned out to be 338 ng/µL and the Enzyme Activity Endpoint Assay (purified): scIgG stood at 0 ng/µL.

As for B7, the Enzyme Activity Endpoint Assay: Fab′2 was 45 ng/µL, the Enzyme Activity Endpoint Assay: Fc was 125 ng/µL, the Enzyme Activity Endpoint Assay: IgG was 12 ng/µL and the Enzyme Activity Endpoint Assay: scIgG amounted to 19 ng/µL.

B8 gave an Enzyme Activity Endpoint Assay: Fab′2 of 52 ng/µL, an Enzyme Activity Endpoint Assay: Fc of 131 ng/µL, an Enzyme Activity Endpoint Assay: IgG of 18 ng/µL and an Enzyme Activity Endpoint Assay: scIgG of 16 ng/µL.

B9 showed an Enzyme Activity Endpoint Assay (purified): Fab'2 of 782 ng/µL, an Enzyme Activity Endpoint Assay (purified): Fc of 429 ng/µL, an Enzyme Activity Endpoint Assay (purified): IgG of 0 ng/µL and an Enzyme Activity Endpoint Assay (purified): scIgG of 0 ng/µL.

In turn, B10 displayed an Enzyme Activity Endpoint Assay (purified): Fab'2 of 409 ng/µL, an Enzyme Activity Endpoint Assay (purified): Fc of 303 ng/µL, an Enzyme Activity Endpoint Assay (purified): IgG of 114 ng/µL and an Enzyme Activity Endpoint Assay (purified): scIgG of 328 ng/µL.

B11 gave an Enzyme Activity Endpoint Assay (purified): Fab'2 of 0 ng/µL, an Enzyme Activity Endpoint Assay (purified): Fc of 3 ng/µL, an Enzyme Activity Endpoint Assay (purified): IgG of 1640 ng/µL and an Enzyme Activity Endpoint Assay (purified): scIgG of 0 ng/µL.

The protein B12 yielded an Enzyme Activity Endpoint Assay (purified): Fab'2 of 818 ng/µL, an Enzyme Activity Endpoint Assay (purified): Fc of 457 ng/µL, an Enzyme Activity Endpoint Assay (purified): IgG of 0 ng/µL and an Enzyme Activity Endpoint Assay (purified): scIgG of 0 ng/µL.

In turn, B13 registered an Enzyme Activity Endpoint Assay (purified): Fab'2 of 313 ng/µL, an Enzyme Activity Endpoint Assay (purified): Fc of 310 ng/µL, an Enzyme Activity Endpoint Assay (purified): IgG of 86 ng/µL and an Enzyme Activity Endpoint Assay (purified): scIgG of 454 ng/µL.

For B14, the Enzyme Activity Endpoint Assay (purified): Fab'2 amounted to 762 ng/µL, the Enzyme Activity Endpoint Assay (purified): Fc amounted to 425 ng/µL, the Enzyme Activity Endpoint Assay (purified): IgG worked out at 0 ng/µL and the Enzyme Activity Endpoint Assay (purified): scIgG stood at 0 ng/µL.

For B15, the Enzyme Activity Endpoint Assay (purified): Fab'2 is 1050 ng/µL, the Enzyme Activity Endpoint Assay (purified): Fc was found to be 439 ng/µL, the Enzyme Activity Endpoint Assay (purified): IgG turned out to be 0 ng/µL and the Enzyme Activity Endpoint Assay (purified): scIgG is 0 ng/µL.

For B16, the Enzyme Activity Endpoint Assay (purified): Fab'2 was 673 ng/µL, the Enzyme Activity Endpoint Assay (purified): Fc was 317 ng/µL, the Enzyme Activity Endpoint Assay (purified): IgG is 347 ng/µL and the Enzyme Activity Endpoint Assay (purified): scIgG amounted to 29 ng/µL.
